Values belong to the binder of their own block, whether it stands above or below them. Bridge positions count the residues as written; N and C are the ends. Square brackets hold non-standard residues; d marks the D form. Ends that are not written are not given here. Bip = N[C@@H](Cc1ccc(-c2ccccc2)cc1)C(=O)O; 1Nal = N[C@@H](Cc1cccc2ccccc12)C(=O)O; d2Nal = N[C@H](Cc1ccc2ccccc2c1)C(=O)O; hArg = N=C(N)NCCCC[C@H](N)C(=O)O; Pen = CC(C)(S)[C@H](N)C(=O)O; Nle = CCCC[C@H](N)C(=O)O; GABA = NCCCC(=O)O; βAla = NCCC(=O)O
How the values were obtained:
hMC1-R (human) [1] = molecular target: hMC1-R (human) (UniProt Q01726); assay: ratio Ki hMC1-R / Ki hMC4-R, same assay
Sequence of hMC1-R (human) (Q01726 whole entry): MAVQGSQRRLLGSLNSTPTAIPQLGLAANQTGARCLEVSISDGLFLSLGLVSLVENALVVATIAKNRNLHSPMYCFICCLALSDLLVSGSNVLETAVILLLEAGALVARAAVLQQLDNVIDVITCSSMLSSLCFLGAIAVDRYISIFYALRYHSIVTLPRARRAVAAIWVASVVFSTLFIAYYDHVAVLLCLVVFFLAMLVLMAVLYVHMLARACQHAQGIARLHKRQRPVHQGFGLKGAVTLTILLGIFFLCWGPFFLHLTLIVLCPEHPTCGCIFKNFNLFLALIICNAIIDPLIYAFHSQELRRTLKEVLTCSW

hMC1-R (human) [2] = molecular target: hMC1-R (human) (UniProt Q01726); assay: competition with [125I]-NDP-α-MSH, CHO-K1 membranes
hMC3-R (human) [3] = molecular target: hMC3-R (human) (UniProt P41968); assay: as above
Sequence of hMC3-R (human) (P41968 whole entry): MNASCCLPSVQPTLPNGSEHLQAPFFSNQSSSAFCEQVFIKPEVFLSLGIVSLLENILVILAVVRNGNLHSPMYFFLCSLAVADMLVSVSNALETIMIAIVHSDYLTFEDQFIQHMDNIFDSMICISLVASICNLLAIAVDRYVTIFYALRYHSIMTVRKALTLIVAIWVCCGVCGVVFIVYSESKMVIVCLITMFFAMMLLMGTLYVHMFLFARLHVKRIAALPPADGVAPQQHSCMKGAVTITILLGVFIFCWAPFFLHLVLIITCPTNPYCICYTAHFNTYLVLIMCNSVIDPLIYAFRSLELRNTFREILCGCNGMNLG

hMC4-R (human) [4] = molecular target: hMC4-R (human) (UniProt P32245); assay: as above
Sequence of hMC4-R (human) (P32245 whole entry): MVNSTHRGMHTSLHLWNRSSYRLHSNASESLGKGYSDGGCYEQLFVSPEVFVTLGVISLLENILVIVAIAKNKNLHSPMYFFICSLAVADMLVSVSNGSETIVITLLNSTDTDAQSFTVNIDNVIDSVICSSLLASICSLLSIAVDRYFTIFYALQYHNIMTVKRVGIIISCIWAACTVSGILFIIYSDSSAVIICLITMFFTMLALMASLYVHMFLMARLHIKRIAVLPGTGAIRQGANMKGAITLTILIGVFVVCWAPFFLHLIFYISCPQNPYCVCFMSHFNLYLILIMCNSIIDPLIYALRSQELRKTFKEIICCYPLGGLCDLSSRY

hMC5-R (human) [5] = molecular target: hMC5-R (human) (UniProt P33032); assay: as above
Sequence of hMC5-R (human) (P33032 whole entry): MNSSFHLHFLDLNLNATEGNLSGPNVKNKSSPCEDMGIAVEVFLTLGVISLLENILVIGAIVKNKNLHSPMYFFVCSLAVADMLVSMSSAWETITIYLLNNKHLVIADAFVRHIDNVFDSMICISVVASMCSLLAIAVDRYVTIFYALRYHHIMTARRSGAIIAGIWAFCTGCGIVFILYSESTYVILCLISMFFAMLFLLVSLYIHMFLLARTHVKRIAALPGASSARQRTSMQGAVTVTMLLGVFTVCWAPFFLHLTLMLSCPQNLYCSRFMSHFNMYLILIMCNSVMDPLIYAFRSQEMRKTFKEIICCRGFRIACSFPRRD

[6] = molecular target: human melanocortin receptor subtype 1 (hMC1-R) (human), Q01726; assay: [125I]-NDP-α-MSH competition, membranes
Sequence of human melanocortin receptor subtype 1 (hMC1-R) (human), Q01726 (Q01726 whole entry): as the sequence (Q01726 whole entry) above

[7] = molecular target: human melanocortin receptor subtype 3 (hMC3-R) (human), P41968; assay: [125I]-NDP-α-MSH competition, membranes
Sequence of human melanocortin receptor subtype 3 (hMC3-R) (human), P41968 (P41968 whole entry): as the sequence (P41968 whole entry) above

[8] = molecular target: human melanocortin receptor subtype 4 (hMC4-R) (human), P32245; assay: [125I]-NDP-α-MSH competition, membranes
Sequence of human melanocortin receptor subtype 4 (hMC4-R) (human), P32245 (P32245 whole entry): as the sequence (P32245 whole entry) above

[9] = molecular target: human melanocortin receptor subtype 5 (hMC5-R) (human), P33032; assay: [125I]-NDP-α-MSH competition, membranes
Sequence of human melanocortin receptor subtype 5 (hMC5-R) (human), P33032 (P33032 whole entry): as the sequence (P33032 whole entry) above

hMC1-R (human) [10] = molecular target: hMC1-R (human) (UniProt Q01726); assay: cell-based or functional assay
hMC3-R (human) [11] = molecular target: hMC3-R (human) (UniProt P41968); assay: cell-based or functional assay
hMC4-R (human) [12] = molecular target: hMC4-R (human) (UniProt P32245); assay: cell-based or functional assay
hMC5-R (human) [13] = molecular target: hMC5-R (human) (UniProt P33032); assay: cell-based or functional assay

B1: D-Phe-c(Cys-His-D-Phe-Arg-Bip-β-Ala-D-Cys)-Thr-NH2 (peptide)
peptide: [dF]CH[dF]R[Bip][βAla][dC]T-NH2
modifications: disulfide 2-8; N-terminus assumed
SMILES: C[C@@H](O)[C@H](NC(=O)[C@H]1CSSC[C@H](NC(=O)[C@H](N)Cc2ccccc2)C(=O)N[C@@H](Cc2c[nH]cn2)C(=O)N[C@H](Cc2ccccc2)C(=O)N[C@@H](CCCNC(=N)N)C(=O)N[C@@H](Cc2ccc(-c3ccccc3)cc2)C(=O)NCCC(=O)N1)C(N)=O
Ki hMC1-R/MC4-R (hMC1-R (human) [1]): 0.01
Ki (hMC1-R (human) [2]): 5.8 nM
Ki (hMC3-R (human) [3]): 3370 nM
Ki (hMC4-R (human) [4]): 583 nM
Ki (hMC5-R (human) [5]): 1130 nM

B6: Ac-Nle-c(Pen-His-D-Phe-Arg-Trp-Gaba-Cys)-NH2 (peptide)
peptide: Ac-[Nle][Pen]H[dF]RW[GABA]C-NH2
modifications: disulfide 2-8
SMILES: CCCC[C@H](NC(C)=O)C(=O)N[C@@H]1C(=O)N[C@@H](Cc2c[nH]cn2)C(=O)N[C@H](Cc2ccccc2)C(=O)N[C@@H](CCCNC(=N)N)C(=O)N[C@@H](Cc2c[nH]c3ccccc23)C(=O)NCCCC(=O)N[C@H](C(N)=O)CSSC1(C)C
Ki hMC1-R/MC4-R (hMC1-R (human) [1]): 0.09
Ki (hMC1-R (human) [2]): 0.537 nM
Ki (hMC3-R (human) [3]): 86.1 nM
Ki (hMC4-R (human) [4]): 5.89 nM
Ki (hMC5-R (human) [5]): 2.56 nM

Binder: [dF]CH[d(Et)Tyr]RW[βAla][dC]T-NH2 (disulfide 2-8) [D-Phe-c(Cys-His-D-(Et)Tyr-Arg-Trp-β-Ala-D-Cys)-Thr-NH2]
Ki hMC1-R/MC4-R (hMC1-R (human) [1]): 0
Ki (hMC1-R (human) [2]): 0.05 nM
Ki (hMC3-R (human) [3]): 9.3 nM
Ki (hMC4-R (human) [4]): 1.1 nM
Ki (hMC5-R (human) [5]): 2.9 nM

B7: Ac-Nle-c(Cys-D-Ala-His-D-2-Nal-Arg-1-Nal-Cys)-NH2 (peptide)
peptide: Ac-[Nle]C[dA]H[d2Nal]R[1Nal]C-NH2
modifications: disulfide 2-8
SMILES: CCCC[C@H](NC(C)=O)C(=O)N[C@H]1CSSC[C@@H](C(N)=O)NC(=O)[C@H](Cc2cccc3ccccc23)NC(=O)[C@H](CCCNC(=N)N)NC(=O)[C@@H](Cc2ccc3ccccc3c2)NC(=O)[C@H](Cc2c[nH]cn2)NC(=O)[C@@H](C)NC1=O
cAMP EC50 (hMC1-R (human) [10]): 383 nM
cAMP Kb (hMC3-R (human) [11]): 61.5 nM
cAMP Kb (hMC4-R (human) [12]): 53.6 nM
cAMP EC50 (hMC5-R (human) [13]): 2840 nM
Ki hMC1-R/MC4-R (hMC1-R (human) [1]): 37.1
Ki (hMC1-R (human) [2]): 114 nM
Ki (hMC3-R (human) [3]): 63.9 nM
Ki (hMC4-R (human) [4]): 3.07 nM
Ki (hMC5-R (human) [5]): 1660 nM

Results, then the binder that gave them:

Ki [6]: 7.92 nM
Ki [7]: 46.4 nM
Ki [8]: 6.7 nM
Ki [9]: 21.3 nM
B2: Hydantoin(C(O)-(Nle-Gly))-c(Cys-D-Ala-His-D-Phe-Arg-Trp-Cys)-NH2 (peptide)
peptide: [Nle]GC[dA]H[dF]RWC-NH2
modifications: disulfide 3-9; also: N-terminal hydantoin: C(O) bridges X1 N-terminal N and G2 backbone N, bridge at N via C(O), other end not in the chain

Ki hMC1-R/MC4-R (hMC1-R (human) [1]): 0.09
Ki (hMC1-R (human) [2]): 0.42 nM
Ki (hMC3-R (human) [3]): 106 nM
Ki (hMC4-R (human) [4]): 4.75 nM
Ki (hMC5-R (human) [5]): 1260 nM
B3: D-Phe-c(Cys-His-D-Phe-Arg-Trp-Gaba-D-Cys)-Thr-NH2 (peptide)
peptide: [dF]CH[dF]RW[GABA][dC]T-NH2
modifications: disulfide 2-8; N-terminus assumed
SMILES: C[C@@H](O)[C@H](NC(=O)[C@H]1CSSC[C@H](NC(=O)[C@H](N)Cc2ccccc2)C(=O)N[C@@H](Cc2c[nH]cn2)C(=O)N[C@H](Cc2ccccc2)C(=O)N[C@@H](CCCNC(=N)N)C(=O)N[C@@H](Cc2c[nH]c3ccccc23)C(=O)NCCCC(=O)N1)C(N)=O

Ki hMC1-R/MC4-R (hMC1-R (human) [1]): 0.01
Ki (hMC1-R (human) [2]): 1.68 nM
Ki (hMC3-R (human) [3]): 1260 nM
Ki (hMC4-R (human) [4]): 172 nM
Ki (hMC5-R (human) [5]): 1220 nM
B4: D-Phe-c(Cys-His-D-Phe-hArg-Bip-β-Ala-D-Cys)-Thr-NH2 (peptide)
peptide: [dF]CH[dF][hArg][Bip][βAla][dC]T-NH2
modifications: disulfide 2-8; N-terminus assumed
SMILES: C[C@@H](O)[C@H](NC(=O)[C@H]1CSSC[C@H](NC(=O)[C@H](N)Cc2ccccc2)C(=O)N[C@@H](Cc2c[nH]cn2)C(=O)N[C@H](Cc2ccccc2)C(=O)N[C@@H](CCCCNC(=N)N)C(=O)N[C@@H](Cc2ccc(-c3ccccc3)cc2)C(=O)NCCC(=O)N1)C(N)=O

Ki [6]: 13.9 nM
Ki [7]: 38.4 nM
Ki [8]: 5.73 nM
Ki [9]: 18.9 nM
Binder: AGC[dA]H[dF]RWC-NH2 (disulfide 3-9; also: hydantoin ring: C(O) bridging Ala-Gly) [Hydantoin(C(O)-(Ala-Gly))-c(Cys-D-Ala-His-D-Phe-Arg-Trp-Cys)-NH2]

Ki hMC1-R/MC4-R (hMC1-R (human) [1]): 0.08
Ki (hMC1-R (human) [2]): 0.207 nM
Ki (hMC3-R (human) [3]): 43.2 nM
Ki (hMC4-R (human) [4]): 2.58 nM
Ki (hMC5-R (human) [5]): 344 nM
B5: D-Phe-c(Cys-His-D-Phe-Arg-Trp-β-Ala-D-Cys)-Thr-NH2 (peptide)
peptide: [dF]CH[dF]RW[βAla][dC]T-NH2
modifications: disulfide 2-8; N-terminus assumed
SMILES: C[C@@H](O)[C@H](NC(=O)[C@H]1CSSC[C@H](NC(=O)[C@H](N)Cc2ccccc2)C(=O)N[C@@H](Cc2c[nH]cn2)C(=O)N[C@H](Cc2ccccc2)C(=O)N[C@@H](CCCNC(=N)N)C(=O)N[C@@H](Cc2c[nH]c3ccccc23)C(=O)NCCC(=O)N1)C(N)=O

— patent publication US20120135923A1, “Use of Melanocortins to Treat Dyslipidemia” (IPSEN PHARMA, S.A.S., priority 2009, published 2012)
